Measured values taken from patent US20230348564A1, “ANTI-CANCER PROTEINS” (UNICHEM LABORATORIES LTD, priority 2020, published 2023).

Experiments:
[1] = system: PBMC (Peripheral blood mononuclear cells); assay: cell based in vitro cytotoxicity/anti-proliferation assay (summary); conditions: normal cells
Procedure: The percentage cytotoxicity was calculated using the statistical tool.

ADBR1 = assay: SelectScreen Cell-based Pathway Profiling (GeneBLAzer bla reporter); set-up: species or system Human; conditions: 0.158 μg/mL-50 μg/mL
Procedure: (§1) The mechanism of action of the recombinant lectin having the amino acid sequence of SEQ ID NO.2 is studied by determining its effect on the modulation of key signaling pathways involved in the pathogenesis of cancer. The study was performed using SelectScreen® Cell-based Pathway Profiling Services at Life Technologies, USA. Modulatory effect of Lectin having the amino acid sequence of SEQ ID NO. 2 on various cell signaling pathways was investigated in cell lines overexpressing specific markers using GeneBLAzer Beta-lactamase (bla) Reporter Technology and Tango platforms. The cell lines tested were MDA-MB-231 (Human Breast cancer), KB (Human Cervical cancer), PA-1 (Human ovarian cancer), PANC-1 (Human pancreatic cancer), HT-29 (Human colorectal cancer), T-24 (Human Bladder cancer)
(§2) 10 mg of recombinant lectin having the amino acid sequence of SEQ ID NO.2 was dissolved in 200 μL of TBS buffer (25 mM, pH 8.0) to obtain stock solution of 50 mg/mL. The stock solutions were diluted in Serum Free Medium (STM) to achieve final concentrations in cells ranging from 0.00158 μg/mL-50 μg/mL. Cells (32 μL) were diluted in Assay Media to appropriate cell density and were added to the assay plate. Cells were incubated at 37° C./5% CO2 for 24 h. 40 nL of 1000×sample and 4 μL of assay medium was added to the cells in the assay plate and incubated for 30 minutes at 37° C./5% CO2 in a humidified incubator. Then, 4 μL of the 10×EC80 concentration of activator was added to all wells containing sample to bring the final assay volume to 40 μL. The assay plate was incubated for 16 hours at 37° C./5% CO2 in a humidified incubator. Further, 8 μL of the Substrate Loading Solution (LiveBLAzer™—FRET B/G) was added to the assay plate. The assay plate was incubated for 2 hours at room temperature, in the dark. The assay plate was read on a fluorescence plate reader (Tecan Safire2). Fluorescence emission values at 460 nm and 530 nm were obtained using a standard florescence plate reader and % modulation was determined.
(§3) % Modulation=[(A−B)/A]*100
(§4) Where, A=Fluorescence reading in Control (untreated cells) B=Fluorescence reading in TI treated cells

CCR5 = assay: as above; set-up: species or system Human; conditions: 0.058 μg/mL-50 μg/mL
Procedure: as §1, §2, §3, §4

IL-4/STAT6 = assay: as above; set-up: species or system Human; conditions: 0.0158 μg/mL-0.5 μg/mL
Procedure: as §1, §2, §3, §4

MAPK/EGFR/Ras/Raf = assay: as above; set-up: species or system Human; conditions: 0.158 μg/mL-50 μg/mL
Procedure: as §1, §2, §3, §4

NF-KB = assay: as above; set-up: species or system Human; conditions: 0.5 μg/mL-50 μg/mL
Procedure: as §1, §2, §3, §4

PI3K/AKT/FOXO3 = assay: as above; set-up: species or system Human; conditions: 0.5 μg/mL-50 μg/mL
Procedure: as §1, §2, §3, §4

PKC/Ca2+ = assay: as above; set-up: species or system Human
Procedure: as §1, §2, §3, §4

TNF-alpha/JNK = assay: as above; set-up: species or system Human; conditions: 0.5 μg/mL-50 μg/mL
Procedure: as §1, §2, §3, §4

[2] = system: MCF-7 (Human breast adenocarcinoma); assay: MTT cytotoxicity assay; conditions: 48h
Procedure: (§5) All the cancer cell lines were procured from National Centre for Cell Science, Pune (India). Cell lines were maintained under conditions as mentioned in Table 23. The cell lines were sub-cultured by trypsinization followed by splitting the cell suspension into fresh flasks and supplementing with fresh culture medium.
(§6) All the cell lines were grown in specified media at 37° C. with 95% Humidity and 5% CO2.
(§7) The cells were trypsinized, counted by Trypan blue method in Neuebauer's Chamber and plated in wells of flat bottom 96-well plate at the density corresponding to 10×10^3 cells/well/200 μL medium.
(§8) Following overnight incubation, the media in the plate was replenished with 180 μL/well and then the cells were treated with 20 μL of each test item at concentrations ranging from 2.5 μg/mL-80 μg/mL in triplicates, so that the total volume in each well is 200 μL.
(§9) The untreated cells served as negative control. The cells were incubated with the test items or positive control for a time period of 48h. Following incubation, the cell cytotoxicity was estimated using MTT assay. Absorbance was measured at 540 nm. The percentage cytotoxicity corresponding to each treatment was calculated using the formula:
(§10) % Cytotoxicity=(1−X/R)*100
(§11) Where X=absorbance of wells corresponding to treated cells R=absorbance of untreated cells (cells maintained in growth medium only)
(§12) IC50 value was calculated using Graph-Pad Prism version 4.01 software.

[3] = system: MDA-MB-231 (Human breast adenocarcinoma); assay: MTT cytotoxicity assay; conditions: 48h
Procedure: as §5, §6, §7, §8, §9, §10, §11, §12

B1: SEQ ID NO. 2: recombinant lectin; variant of the S. rolfsii lectin amino acid sequence (reported as Rec-2 in WO 2010/095143) (protein)
chain: TYKITVRVYQTNPDAFFHPVEKTVWKYANGGTWTITDDQHVLTMGGSGTSGTLRFHADNGESFTATFGVHNYKRWCDIVTNLAADETGMVINQQYYSQKNREEARERQLSNYQVKNAKGRNFQIVYTEAEGNDLHANLIIG
modifications: In vitro synthesis
[1]; listed as SEQ ID NO 2
  % Cytotoxicity: Nil
[1]; listed as SEQ ID No 2
  % Cytotoxicity: did not show cytotoxic effect
ADBR1
  Effect (wrt control), inhibition: 26%-49% inhibition
ADBR1; listed as recombinant lectin
  Effect (wrt control), inhibition: 26% to 49%
CCR5
  Effect (wrt control), inhibition: 21%-70% inhibition
CCR5; listed as recombinant lectin
  Effect (wrt control), inhibition: 21%-70%
IL-4/STAT6
  Effect (wrt control), inhibition: 16%-28% inhibition
IL-4/STAT6; listed as recombinant lectin
  Effect (wrt control), inhibition: 16% to 28%
MAPK/EGFR/Ras/Raf
  Effect (wrt control), inhibition: 2%-48% inhibition
MAPK/EGFR/Ras/Raf; listed as recombinant lectin
  Effect (wrt control), inhibition: 2% to 48%
NF-KB
  Effect (wrt control), inhibition: 3%-13% inhibition
NF-KB; listed as recombinant lectin
  Effect (wrt control), inhibition: 3% to 13%
PI3K/AKT/FOXO3
  Effect (wrt control), inhibition: 2%-73% inhibition
PI3K/AKT/FOXO3; listed as recombinant lectin
  Effect (wrt control), inhibition: 2% to 73%
PKC/Ca2+; 0.00158 μg/mL to 0.5 μg/mL
  effective inhibition: 5% to 19%
PKC/Ca2+; 0.00158 μg/mL-0.158 μg/mL
  Effect (wrt control), inhibition: 5%-19% inhibition
TNF-alpha/JNK
  Effect (wrt control), inhibition: 12%-45% inhibition
TNF-alpha/JNK; listed as recombinant lectin
  Effect (wrt control), inhibition: 12% to 45%
[2]
  IC50: >80 µg/mL
[3]
  IC50: 9.7 µg/mL
